In article PMC4999211, “Amlexanox Blocks the Interaction between S100A4 and Epidermal Growth Factor and Inhibits Cell Proliferation” (PLoS ONE, 2016):

Target: T1, mutant S100A4 (C3S, C76S, C81S, C86S) (human, UniProt P26447 1-101, C3S | C76S | C81S | C86S)
T1 construct: human S100A4 with all four cysteines mutated to serines; residue numbers 1-101 in the HSQC bar graph; 15N-labelled where it was the observed protein in HSQC; No tag is named; also called mS100A4; quadruple mutant S100A4; source: E. coli BL21 (DE3), pET21b, purified (ammonium sulfate, Hi-Prep Q XL, Hi-Prep Phenyl FF, Superdex 75)
Assay: other fluorescence titration; intrinsic tryptophan fluorescence of EGF (8 uM), excitation 295 nm, emission at 345 nm; mS100A4 added at 0-22 uM; double-reciprocal plot, one-site binding model
Conditions: both partners purified

T1 sequence (P26447 whole entry C3S/C76S/C81S/C86S, one chain of several): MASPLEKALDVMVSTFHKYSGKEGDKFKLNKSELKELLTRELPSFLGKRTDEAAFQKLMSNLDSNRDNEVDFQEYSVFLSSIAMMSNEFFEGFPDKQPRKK

B1: human epidermal growth factor (ligand, UniProt P01133 971-1023, looked up)
chain: NSDSECPLSHDGYCLHDGVCMYIEALDKYACNCVVGYIGERCQYRDLKWWELR
notes: human epidermal growth factor, the mature hormone cut from pro-EGF; three disulfide bonds; 15N-labelled where it was the observed protein in HSQC; also called EGF; recombinant EGF
  Kd: 5.2 µM
